Laboratory results published in US20210087231A1 (UNIVERSITY OF MARYLAND BALTIMORE, published 2021).
No end group written: not given here. Cy3 = Cy3 fluorescent dye label

What was measured:
[1] = target: T1, TRAM-Cer (UniProt Q86XR7 1-235); experiment: FRET-FLIM in HeLa cells expressing the Cer fusion, Cy3-peptide 1 h
T1 construct: Control construct expressed in HeLa cells; not shown: Cerulean fluorescent protein (Cer)
Protocol: (§1) To identify potential binding partners of inhibitory peptides a FRET approach coupled with Fluorescence Lifetime Imaging Microscopy (FLIM) was used. HeLa cells were transiently transfected with an expression vector that encodes a TIR domain fused with Cerulean fluorescent protein (Cer). Cells were treated with various concentrations of a Cy3-labeled inhibitory peptide 48 hours after transfection. Cy3 is a suitable FRET acceptor for Cer fluorescence. A direct molecular interaction of a Cy3-labeled peptide with Cer-fused TIR domain should quench Cer fluorescence, leading to a decreased fluorescence lifetime.
(§2) A progressive shift of average fluorescence lifetime towards lower values observed with increasing peptide concentrations indicates the binding between donor and acceptor moieties. […] FRET efficiencies presented in FIG. 13 were calculated from the average lifetimes corresponding to entire images that contained multiple cells as in images shown in FIG. 11, using data obtained in three independent experiments. […]
(§3) The strongest peptide-induced quenching was detected for the TLR9 TIR-Cer-expressing cells treated with Cy3-9R34-ΔN. This peptide quenched the TLR9 TIR-Cer fluorescence dose-dependently with FRET efficiency varying in the range of 9-23% (FIG. 13). […]

[2] = target: T2, MyD88-Cer (UniProt Q99836 155-296); experiment: as above
T2 construct: The vector is 'described previously'; Expressed in HeLa cells; also called MyD88 TIR-Cer; Cer-labeled MyD88 TIR; not shown: Cerulean fluorescent protein (Cer)
Protocol: as §1, §2, §3

T1 sequence (Q86XR7 whole entry, the tested form may be a part): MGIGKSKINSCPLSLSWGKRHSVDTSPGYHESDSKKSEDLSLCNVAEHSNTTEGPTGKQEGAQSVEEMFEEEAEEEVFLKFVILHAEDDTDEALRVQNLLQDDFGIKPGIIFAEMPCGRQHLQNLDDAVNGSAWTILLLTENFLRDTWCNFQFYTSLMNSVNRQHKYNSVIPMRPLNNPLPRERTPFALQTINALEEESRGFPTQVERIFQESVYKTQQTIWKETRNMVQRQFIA
T2 sequence (Q99836 155-296): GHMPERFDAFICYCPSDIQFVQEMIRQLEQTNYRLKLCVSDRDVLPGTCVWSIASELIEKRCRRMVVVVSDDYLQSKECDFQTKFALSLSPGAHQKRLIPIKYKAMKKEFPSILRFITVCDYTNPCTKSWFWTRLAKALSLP

B1: Cy3-9R34-ΔN (peptide)
peptide: Cy3-RQIKIWFQNRRMKWKKALRLCLEERD
notes: Cy3-labeled cell-permeating decoy peptide (CPDP); also called 9R34-ΔNa; peptide from Surface 1 (S1) of TLR9
[1]
  binding result: no binding (tested: 40 µM)
[2]
  binding result: no binding (tested: 2.5 and 10 µM)
